Results as given in article PMC10330821.

Target: native bovine chromogranin B (bCHGB) (bovine)
Assay: SEC; bCHGB in detergents, re-extracted from vesicles and fractionated by gel filtration; elution position compared with recombinant mCHGB

## native bovine chromogranin B (bCHGB) (natural protein)
  stoichiometry N: 2
